In the nanobody polyreactivity screen of Harvey et al. (2022):

Experiment: yeast display, Sf9 membrane polyspecificity reagent, FACS + sequencing; frameworks hold sequencing errors
Outline: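 Galactose-induced (36–48 hours) yeast carrying a synthetic nanobody display library were exposed to 10% biotinylated, detergent-solubilized Sf9 membrane reagent at 4 °C for 1 hour. FACS followed streptavidin microbead enrichment, using low and high (top ~1%) gates for expression (anti-HA) and reagent binding (streptavidin). Colony PCR, MiSeq 2 × 250 sequencing and CDR-length filtering followed. Labels for polyreactivity reflect the gate of origin.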

Sequence | polyreactivity (PSR sort gate)
QVHLVESGAGLVQAGGSLRLSCAASGGIFWVYAMGWYRQAPGKERELGAAISNSDTSTSYADSVKGRFTISRDNAKNTVYLQMTSLKPEDTAVYYCNADSPSLSGDYWGQGTQVTVSS | low polyreactivity
QVHLVESGGALVQAGGRLRLSCAASGSIFGRNAMGWYRQAPGKERELVAVISKRSGNTYYADSVKGRFTISRDNAKNTVYLQMNSLKPEHTAVYYCNAVDQKLLRYDYWGQGTEVTVSS | high polyreactivity
QVHLVESGGALVQAGGSLRLSCAASGNTFNANAMGWYRQAPGKERELVAVISANGGRTYYADSVKGRFTISRDNAKNTVYLQMNSLIPEDTAVYYCAADSSGEYPGGYWGQGTQVTVSS | low polyreactivity
QVHLVESGGCLVQAGGSLRLSCAASGFTITYNAMGWYRQAPGKEREFVAAITNNGSTYYADSVKGRFTISRDNAMNTVYFQMNSLKPEDTAVYYCAVDPGYYDEYNYWGQGTHVTVSS | low polyreactivity
QVHLVESGGCLVQAGGSLRLSCAASGITFGYYAMGWYRQAPGKERELVAAITTRGGSTSDADSVKGRFTISRDNAKNTVYFQMNSLKPEDNAVYYCAARWRQRKSVRYGQHGYDYWGQGTQVTVSS | high polyreactivity
QVHLVESGGCLVQAGGTLRLSCAASGFTYKWYAMGWYRQAPGKERELVATITIGGRTNYADSVKGRFTISRDNAKNTVYLQMNSLKTEETAVYYCATYFVGLRLSDYDYWGQGTQVTVSS | low polyreactivity
QVHLVESGGGFFQAGGSLRLSCAASVITFPLYAMGWYRPAPGKERELVSAISRNGGRTYYADSVKGRFTISRDNAKNTVYLQMNSLKPEDTAVYYCAKVSRGSVSSPRDDYWGQGTQVNVSS | high polyreactivity
QVHLVESGGGLDQAGGSLRLSCAASGSIFPHNAMVWYIQAPGKERELVASITSRCGITYYADSVKGRFTISRDNAKNTVYLQMNRLKPEDTAVYYCAARNNVEYLTIYKPYSFGSDSWGQGTQVTVSS | low polyreactivity
QVHLVESGGGLDQAGGSLRLSSAASGSIFDKYAMVWYRQAPGKERELVAAITSGGRTYYADSVKGRFTISRDNAKNTVYLQMNSLKPEDTAVYYCAAGARRSYYPSQYYYWGQGTQVTVSS | low polyreactivity
QVHLVESGGGLLQAGGSLRLSCAASGITFSRNVMGWYIQAPGKERELVAAISTSGGSTYYADSVKGRFTISRDNAKNTVYLQMNSLKPEDTAGYYCAKDITVTYPGLDYDYWGQGTQVTVSS | low polyreactivity
QVHLVESGGGLVEAVGSLRLSCAASGRIFARYAMGCYRQAPGKERQLVATITRVGSTNYADSVKRPFTISRDNAKTTVYLQMNSLKPEDTEGFYCNADIRRNGGYAHEYWVQGTQVTVSS | low polyreactivity
QVHLVESGGGLVHAGGSLRLSCAASGSTFYPYAMGWYRQAPGKERELVAAISISGTTYYADSVKGRFTISRDNAKNTVYLQMNCLKPEDTAVYYCAKRAWVRRYPGRVGYNMYYWGQGTQVSVSS | high polyreactivity
QVHLVESGGGLVHAGGSLRLSCAASGSTFYYYAMGWYRQAPGKERELVAAIRLRGGGTYADSVKGRFTISRDNAKNTFYLQMNSLKPEDTAVYYCAARVWYHGTQFGYWGQGTQVTVSS | high polyreactivity
QVHLVESGGGLVQAAGSLRLSCAASGITFAPYAMGWYRQAPGKERELVAGINTGGSTYYADSVKGRFTISRDKEKNTVYLQMNSLKPEDTAFYYCATDSYPADQDIPGCDYWGQGTQVTVSS | low polyreactivity
QVHLVESGGGLVQAAGSLRLSCAASGRIFSYNAMGWYRPAPGKERELVAAISSDGSTYYADSVKGRFTISRDNAKNTVYLQMNSLKPEDTAVYYCAASQVVWFDYTTAQVGSYKVNYWGQGTQVSVSS | low polyreactivity
QVHLVESGGGLVQAGGILRLSCAASGFIFLQYTMGWYRPAPGKERELVAGISWSGDSTYYADSVKGRFTISRDNAKNTVYLQMNSLKPEDTAVYYCNADWRAAGSDFAFGNPQLYDDWGQGSQVTVSS | low polyreactivity
QVHLVESGGGLVQAGGRLRLSCAASGRTFFWYAMGWYRQAPGKEREFVAAITWRTGSTYYADSVKGRFTLSRDNAKNTVYLQMNSLKPEDTAVYYCAGEFPWSFATYYSWGQGTQVTVSS | high polyreactivity
QVHLVESGGGLVQAGGRLRLSCAASGSIFPGYAMGWYRQAPGKERELVAAITFSGGSTYYADSLKGRFTISRDNAKNTVYLQMNSLKPEDTAVYYCAAPGWYGGYPSYYEYGYWGQGTQVTVSS | low polyreactivity
QVHLVESGGGLVQAGGSLLLSCAASGRILGPNAMGWYIQAPGKERELVAAINSGGSTNYADSVKGRFTISRDNAKNTVYLQMNSLKAEDTAVYYCNAVYGVYDFNYWGQGTQVTVSS | low polyreactivity
QVHLVESGGGLVQAGGSLRISCSASGPSYTHYAMGWYRQAPGKERELVASICDGGGTHYADSVKGRFTISRDNAKNTVYLEMKSLKPEDTAVYYCATYRYPTRRYDYWGQGTQVPVSS | low polyreactivity

Sequence | polyreactivity (PSR sort gate)
QVHLVESGGGLVQAGGSLRLCCAASGSILVSYAMGWYRQAAGKERELVAAITYTGGNTYYADSGKGRFTISRDNAKNTVYVQLNSQKPEDTAVYYCNAGWTQTSVTFDYWGQGTQVTVSS | low polyreactivity
QVHLVESGGGLVQAGGSLRLICAASGISFLAYAMGCYRHAPRKERELVAAISTDGGSTYYADSVKGRFTISRDNAKNTVYLQMNSLKPVYTAVYYCAAKQRYVRTRGMDYWGQGTQVTVSS | high polyreactivity
QVHLVESGGGLVQAGGSLRLICAASGSIFPRNAMGWYRQAPGKERELVARINSGGTTKYADSVKGRFTISRDNAKNTVFLQMNSLKPEDTAVYYCNADTYILDPLRKSYGYDYWGQGTQVTVSS | low polyreactivity
QVHLVESGGGLVQAGGSLRLICAASGYIFPYYSMGWYRQAPGKERELVAGITTDGSSTYYADSVKGRFTISRDNAKKTVYLQMNSLKPEDTAVYYCYGYPGYTWGWYDFWGQGSQVTVSS | low polyreactivity
QVHLVESGGGLVQAGGSLRLICAAYRRTLGGNAMGWYRQAPGKERELVAPITHSASTYADSVKGRFTISRDNAKNTVYLQMNSLKPEDTAVYYCNAPDPSDQHGDYWGQGTQVTVSS | low polyreactivity
QVHLVESGGGLVQAGGSLRLRCAASGLTSTNNAMGWYRQAPGKERELVAAITSGSTTNYADSVKGRFTISRDNAKNTVYLQMNSLNPEDTAVYYCAAQYGVWWRGYYYPEYDYWGEGTQVTVSS | low polyreactivity
QVHLVESGGGLVQAGGSLRLRCAASGSISGRYAMGWYRQAPGKERELVAAISWIGGSTYYADSVKGRFTISRDNAKNTVYLQMNSLKPEDTAVYYCNVSIDTRTHPLLVVFYGYDYWGQGTQVSVSS | low polyreactivity
QVHLVESGGGLVQAGGSLRLRCAASGSTFGYYAMGWYRQAPGKERELVAAIRGSVTRTYYADSVKGRFTISRDNAKNTVYLEMNSLKPEDTAVYYCAAGSRLGWGSEYWGQGTQVTVSS | high polyreactivity
QVHLVESGGGLVQAGGSLRLSCAASALTDGRYAMGWYRQAPGKERELVADIRYRAGSTNYADSVKGRFTISRDNAKNTVYLQMNSLKPEDTAVYYCAKGHPNDFGYWGQGTQVTVSS | high polyreactivity
QVHLVESGGGLVQAGGSLRLSCAASARIFRYYTMGWNRQAPGKERELVAAISVSGGSTYYADSVKGRFTSSRDNAKNTVYILMNSLKPEDTAVYYCAAPFVWSSYRGYDYWGQGSQVTVSS | high polyreactivity
QVHLVESGGGLVQAGGSLRLSCAASGAMGWYRQAPGKERELVAAISSGNTNYADSVKGRFTISRDNAKNTVYLQMNSLKPEDTAVYYCAAEQPYGQKNTGLGVIDLDYWGQGTQVTVSS | low polyreactivity
QVHLVESGGGLVQAGGSLRLSCAASGFIFLHYAMGWYRQAPGKERELVAAINKSGGSTYYADSVKGRFTSSRDNAMYTDYLQMNSLKPEDTAVYYCNAVYYWFIGDYWGQGTQVTVSS | high polyreactivity
QVHLVESGGGLVQAGGSLRLSCAASGFIFSLYAMGWYRQAPGKERELVAAISKRGGSTNYADSVKGRFTISRDNAKNTVYLQMNSLKPEDTAVYYWAKARPGFLYDHWGQGTQVTVSS | high polyreactivity
QVHLVESGGGLVQAGGSLRLSCAASGFIFYYYAMGWYRQAPGKERELVASISAIGGGTYYADSVNGRFTISRDNAKNTVYLQMNSLKPEDTAVYYCDPDGDGWWWSYVDRYDYWGQGTQVTVSS | low polyreactivity
QVHLVESGGGLVQAGGSLRLSCAASGFILPYYAMGWYRQAPGKERELVAAISRSGGGTYYADSVKGRFTISRDNAKNTVYLQMNSLKPEDTAVYYCAADYSAYEYEYWGQGTQVTVSS | high polyreactivity
QVHLVESGGGLVQAGGSLRLSCAASGFPFGSYAMGWDRPAPGKERELVSGISRGGSTNYADSVKGRFTISRDNAKNTVYLQMNSLKPEDTAVYYCAARAVFVADTGATPAGYDYWGQGTQVTVSS | low polyreactivity
QVHLVESGGGLVQAGGSLRLSCAASGFTFDYYTMGWYRPAPGKERELVAAITSSAGSTDYADSVKGRFTISRDNAKNTVYLQMNSLKPEDTAVYYCNADFLYGTYDYWGQGTQVTVSS | low polyreactivity
QVHLVESGGGLVQAGGSLRLSCAASGFTFIRNGMGSYRQAPGKERELVAAINSRGGNTYYADSVKGRFTISRDNAKNTVYLQMNSLKPEDTAVYYCNRVVQRWSTQYGYWGQGTQVTVSS | high polyreactivity
QVHLVESGGGLVQAGGSLRLSCAASGFTFRRYAMGWYRQAPGKERELVAAISYGGGRTYYADSVKGRFTISRDNAKNTVYLQMNSLKPEDTAVYYCAADVQSRYVGEGDYWGQGTQVTVSS | high polyreactivity
QVHLVESGGGLVQAGGSLRLSCAASGFTFRYYGMGRYRQAPGKERELVAAISRGGSTNYADSVKGRFTISRDNAKNTVYLQMTSLKPEDTAVYYFAKAGLTYRALRYYWGQGTQVTVSS | high polyreactivity
